Experimental data: patent publication US20230302148A1, “PHARMACEUTICAL COMPOSITION COMPRISING LONG-ACTING CONJUGATE OF TRIPLE GLUCAGON/GLP-1/GIP RECEPTOR AGONIST” (HANMI PHARM. CO., LTD., priority 2020, published 2023)
Bridges are numbered along the chain shown (N, C = ends). Where no end group is shown, it is not given here. [ ]: non-standard residue; d: D form. The star is where a group is joined. Acetyl(2-(4-imidazolyl)) = O=C(Cc1c[nH]cn1)*; Aib = CC(C)(N)C(=O)O

Key:
Test in all cases: cell-based or functional assay
human GLP-1 receptor = human GLP-1 receptor (human, UniProt P43220 24-463)
human GCG receptor = human GCG receptor (human, UniProt P47871 26-477)
human GIP receptor = target: T1, human GIP receptor (human, UniProt P48546 22-466)
T1 sequence (looked up): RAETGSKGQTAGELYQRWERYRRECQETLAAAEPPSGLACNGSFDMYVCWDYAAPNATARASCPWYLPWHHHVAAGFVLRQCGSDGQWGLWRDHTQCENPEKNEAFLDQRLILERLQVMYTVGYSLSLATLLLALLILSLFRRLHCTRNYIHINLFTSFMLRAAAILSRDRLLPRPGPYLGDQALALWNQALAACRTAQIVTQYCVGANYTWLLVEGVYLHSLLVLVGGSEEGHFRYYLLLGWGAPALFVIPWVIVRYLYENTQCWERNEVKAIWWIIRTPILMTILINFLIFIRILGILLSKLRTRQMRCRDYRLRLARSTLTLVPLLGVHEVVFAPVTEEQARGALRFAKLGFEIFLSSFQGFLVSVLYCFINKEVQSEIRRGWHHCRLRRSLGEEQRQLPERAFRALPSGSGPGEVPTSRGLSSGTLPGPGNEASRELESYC

Sequence of human GCG receptor (P47871 26-477): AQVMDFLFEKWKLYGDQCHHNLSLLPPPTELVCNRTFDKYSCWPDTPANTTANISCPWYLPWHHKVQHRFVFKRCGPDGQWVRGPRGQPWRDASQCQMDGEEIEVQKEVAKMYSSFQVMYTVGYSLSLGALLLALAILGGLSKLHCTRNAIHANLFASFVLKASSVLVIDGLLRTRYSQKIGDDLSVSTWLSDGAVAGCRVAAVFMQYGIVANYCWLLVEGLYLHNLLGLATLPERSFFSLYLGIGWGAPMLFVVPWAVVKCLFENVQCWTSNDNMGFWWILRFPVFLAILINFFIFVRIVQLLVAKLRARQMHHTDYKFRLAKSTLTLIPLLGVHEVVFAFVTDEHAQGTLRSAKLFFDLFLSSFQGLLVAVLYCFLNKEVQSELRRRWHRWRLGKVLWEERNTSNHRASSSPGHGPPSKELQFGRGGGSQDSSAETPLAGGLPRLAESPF

| Binder | In vitro activity relative to native peptide (%) vs. GLP-1 (human GLP-1 receptor) | In vitro activity relative to native peptide (%) vs. Glucagon (human GCG receptor) | In vitro activity relative to native peptide (%) vs. GIP (human GIP receptor) |
| --- | --- | --- | --- |
| {Acetyl(2-(4-imidazolyl))}-[Aib]QGTFTSDYSKYLDEKRQKEFVNWLLAQKC (bridge 15-19) [triple agonist of SEQ ID NO: 93] | 5.7% | 0.3% | 0.7% |
| Y[Aib]QGTFTSDYSKALDEKAAKDFVNWLLDHHPSSGQPPPSC (lactam 16-20) [triple agonist of SEQ ID NO: 99] | 20.9% | 14.9% | 57.7% |
| Y[Aib]QGTFTSDYSKALDEKAAKEFVNWLLDQHPSSGQPPPSC (bridge 16-20) [triple agonist of SEQ ID NO: 101] | 23.2% | 13.9% | 40.1% |
| H[Aib]QGTFTSDVSSYLDGQAQKEFIAWLVKGC [triple agonist of SEQ ID NO: 2] | 5.9% | < 0.1% | < 0.1% |
| {Acetyl(2-(4-imidazolyl))}-[Aib]QGTFTSDYSKYLDEKRQKEFVQWLLNTKC (bridge 15-19) [triple agonist of SEQ ID NO: 88] | 9.6% | 0.3% | < 0.1% |
| Y[Aib]QGTFTSDYSKCLDEKRAKEFVQWLLDHHPSSGQPPPS (bridge 16-20) [triple agonist of SEQ ID NO: 22] | 20.1% | 140% | 59.7% |
| {Acetyl(2-(4-imidazolyl))}-[Aib]QGTFTSDYSIAMDEIHQKDFVNWLLAQKC (bridge 15-19) [triple agonist of SEQ ID NO: 92] | 0.8% | < 0.1% | 0.4% |
| {Acetyl(2-(4-imidazolyl))}-[Aib]EGTFTSDYSIAMDEIHQKDFVNWLLAQKC (bridge 15-19) [triple agonist of SEQ ID NO: 90] | 7.4% | < 0.1% | < 0.1% |
| [Acetyl(2-(4-imidazolyl))]GEGTFISDLSKYMDEQAVQLFVEWLMAGGPSSGAPPPSHG [triple agonist of SEQ ID NO: 12] | 0.4% | < 0.1% | < 0.1% |
| H[Aib]QGTFTSDVSKYLDGQAAQEFVAWLLAGGGPSSGAPPPSC [triple agonist of SEQ ID NO: 10] | 46% | < 0.1% | < 0.1% |
| Y[Aib]QGTFTSDYSKYLDEKRAKEFVQWLLCHHPSSGQPPPS (bridge 16-20) [triple agonist of SEQ ID NO: 95] | 2.1% | 0.4% | < 0.1% |
| {Acetyl(2-(4-imidazolyl))}-[Aib]QGTFTSDYSKYLDEKRQKEFVQWLLDTKC (bridge 15-19) [triple agonist of SEQ ID NO: 89] | 7.1% | 0.7% | < 0.1% |
| {Acetyl(2-(4-imidazolyl))}-[Aib]QGTFTSDYSIAMDEIHQKDFVNWLLNTC (bridge 15-19) [triple agonist of SEQ ID NO: 87] | 0.9% | < 0.1% | < 0.1% |
| Y[Aib]QGTFTSDYSKALDEKAAKDFVNWLLDQHPSSGQPPPSC (bridge 16-20) [triple agonist of SEQ ID NO: 102] | 23.3% | 29.5% | 58% |
| {Acetyl(2-(4-imidazolyl))}-[Aib]EGTFTSDYSIAMDEIHQKDFVDWLLAEKC (bridge 15-19) [triple agonist of SEQ ID NO: 91] | 31.9% | 16.8% | 0.3% |
